According to article PMC6642547, “HERA-GITRL activates T cells and promotes anti-tumor efficacy independent of FcγR-binding functionality” (Journal for Immunotherapy of Cancer, 2019):

Molecular target: T1, HERA-GITRL (hexavalent TNF receptor agonist); single-chain GITRL-receptor-binding-domain fused to a silenced … (human, UniProt Q9UNG2 56-177; Q9UNG2 56-177; Q9UNG2 56-177)
T1 construct: glycine-serine based linker, 8 amino acids in length; GITRL (TNFSF18), human, second copy of E56-S177; GITRL (TNFSF18), human, third copy of E56-S177; also called hexavalent HERA-GITRL; scGITRL-RBD-Fc; not shown: Strep-Tag II, C-terminal, kept
Test: not stated; binding to and dissociation from the GITR-Fc receptors measured in real time, equilibrium binding constants (KD) calculated; instrument and who was immobilised not told in what was shown
Conditions: both partners purified

T1 sequence (Q9UNG2 whole entry, the tested form may be a part, one chain of several): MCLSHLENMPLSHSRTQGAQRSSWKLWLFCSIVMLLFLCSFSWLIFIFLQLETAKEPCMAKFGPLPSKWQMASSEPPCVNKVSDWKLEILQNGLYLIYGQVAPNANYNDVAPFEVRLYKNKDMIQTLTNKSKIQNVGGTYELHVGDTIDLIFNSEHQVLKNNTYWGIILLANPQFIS

B1: cynomolgus monkey GITR-Fc (Fc fusion)
chain: QRPTGGPGCGPGRLLLGTGKDARCCRIHPTRCCGDYQGEECCSEWDCVCVQPEFHCGNPCCTTCQHHPCPSGQGVQPQGKFSFGFRCVDCALGTFSRGHDGHCKPWTDCTQFGFLTVFPGNKTHNAVCVPGSPPAEPPG
  Kd: 0.602 nM
